Reference: paper PMC12376597, “High‐Throughput MicroED for Probing Ion Channel Dynamics” (Advanced Science, 2025)

How the values were obtained:
[1] = molecular target: NaK2CNG, mutant of NaK with the selectivity filter substituted to TVGDTPP, lacking the first 19 residues (UniProt Q81HW2); experiment: crystal structure; MicroED (electron diffraction) of single microcrystals grown in Tris pH 8.0 and 60-80% MPD; protein in 0.2% DM with 150 mM NaCl (NaK) or 150 mM KCl (NaK2CNG); space group I4, two monomers in the asymmetric unit, tetramers generated by crystal symmetry
[2] = molecular target: the molecule itself; experiment: as above

Q: How did the stoichiometry N [1] turn out when “NaK2CNG, mutant of NaK with the selectivity filter substituted to TVGDTPP, lacking the first 19 residues (from UniProt Q81HW2 20-114) (natural protein)” was run?
A: The stoichiometry N was 4.

B1: NaK, non-selective ion channel, lacking the first 19 residues (natural protein, UniProt Q81HW2 20-114, looked up)
chain: KDKEFQVLFVLTILTLISGTIFYSTVEGLRPIDALYFSVVTLTTVGDGNFSPQTDFGKIFTILYIFIGIGLVFGFIHKLAVNVQLPSILSNRKKE
notes: NaK non-selective cation channel, construct lacking the first 19 residues; model for molecular replacement was PDB 3E89; Tetrameric channel; in space group I4 the tetramer is generated from one monomer by crystal symmetry, and the two monomers of the asymmetric unit give two tetramers; also called NaK channel
Q: For B1, which “stoichiometry N” value [2] is on record?
A: Its value is 4.
